Columns and labels:
[1] = target: OXPHOS complex III dimer (human (endogenous in fibroblasts, 143B and HepG2)) (UniProt P00156); test: native gel or EMSA; mtDNA-encoded proteins radiolabeled with [35S]-methionine/cysteine in 143B cells in the presence of cycloheximide, 2 h pulse, chase 0, 3 or 24 h; mitochondria isolated, BN-PAGE or 2D native-PAGE
[2] = target: OXPHOS complex III dimer (human (endogenous in fibroblasts, 143B and HepG2)) (UniProt P00156); test: native gel or EMSA; BN-PAGE and Western blot of isolated mitochondria (fibroblasts, 143B cells) solubilised in 1% (v/v) Triton X-100; anti-UQCRC1 antibody
[3] = target: the molecule itself; test: native gel or EMSA; BN-PAGE and Western blot of isolated mitochondria (fibroblasts, 143B cells) solubilised in 1% (w/v) digitonin; anti-MCAD or anti-NDUFA9 antibody
[4] = target: the molecule itself; test: native gel or EMSA; 35S-labelled in vitro translated protein incubated at 37 °C with freshly isolated 143B mitochondria (5 to 60 min), mitochondria solubilised in 1% (v/v) TX-100 or 1% (w/v) digitonin, BN-PAGE

“OXPHOS complex III dimer (from UniProt P00156 1-380; P31930 35-480; P22695 15-453)” gave a stoichiometry N [1] of 2 and a stoichiometry N [2] of 2.

B1: Medium-chain acyl-Coenzyme A dehydrogenase (enzyme, human (endogenous in 143B and HepG2), UniProt P11310 26-421, looked up)
chain: KANRQREPGLGFSFEFTEQQKEFQATARKFAREEIIPVAAEYDKTGEYPVPLIRRAWELGLMNTHIPENCGGLGLGTFDACLISEELAYGCTGVQTAIEGNSLGQMPIIIAGNDQQKKKYLGRMTEEPLMCAYCVTEPGAGSDVAGIKTKAEKKGDEYIINGQKMWITNGGKANWYFLLARSDPDPKAPANKAFTGFIVEADTPGIQIGRKELNMGQRCSDTRGIVFEDVKVPKENVLIGDGAGFKVAMGAFDKTRPVVAAGAVGLAQRALDEATKYALERKTFGKLLVEHQAISFMLAEMAMKVELARMSYQRAAWEVDSGRRNTYYASIAKAFAGDIANQLATDAVQILGGNGFNTEYPVEKLMRDAKIYQIYEGTSQIQRLIVAREHIDKYKN
notes: Medium-chain acyl-CoA dehydrogenase (MCAD, EC 1.3.8.7); 421 amino acid precursor, processed in the mitochondrial matrix into a mature 396 amino acid (43.6 kDa) protein; also called MCAD; Medium-chain acyl-CoA dehydrogenase; source: endogenous, mitochondria isolated from 143B cells or HepG2 cells, solubilised in detergent
In the case of B1, the “stoichiometry N” value [3] is reported as 4.

B2: Medium-chain acyl-Coenzyme A dehydrogenase (enzyme, UniProt P11310 26-421, looked up)
chain: KANRQREPGLGFSFEFTEQQKEFQATARKFAREEIIPVAAEYDKTGEYPVPLIRRAWELGLMNTHIPENCGGLGLGTFDACLISEELAYGCTGVQTAIEGNSLGQMPIIIAGNDQQKKKYLGRMTEEPLMCAYCVTEPGAGSDVAGIKTKAEKKGDEYIINGQKMWITNGGKANWYFLLARSDPDPKAPANKAFTGFIVEADTPGIQIGRKELNMGQRCSDTRGIVFEDVKVPKENVLIGDGAGFKVAMGAFDKTRPVVAAGAVGLAQRALDEATKYALERKTFGKLLVEHQAISFMLAEMAMKVELARMSYQRAAWEVDSGRRNTYYASIAKAFAGDIANQLATDAVQILGGNGFNTEYPVEKLMRDAKIYQIYEGTSQIQRLIVAREHIDKYKN
modifications: [35S]-methionine/cysteine
notes: MCAD cDNA translated as the precursor; after import a proteinase K resistant mature form is seen; 421 amino acid precursor, mature 396 amino acids; Imported into mitochondria that hold endogenous MCAD, so the labelled ~175 kDa tetramer may be mixed with endogenous chains; also called MCAD; radiolabeled MCAD; source: in vitro translated (pGEM4Z, TnT Coupled Reticulocyte Lysate System), imported …
B2 was tested, and the “stoichiometry N” value [4] was 4.
